Assay results as given in PMC2119638.

Columns and labels:
[1] = target: 190-kD proteolytic fragment of talin (chicken) (UniProt P54939); assay: radioligand binding
[2] = target: talin purified from chicken gizzard (chicken) (UniProt P54939); assay: radioligand binding

## vinculin purified from chicken gizzard (natural protein)
[1]
  Kd, higher affinity of two: 0.016 µM
  Kd, lower affinity of two: 0.22 µM
[2]
  Kd, high affinity interaction: 0.03 µM
  Kd, higher affinity of two: 0.01 µM
  Kd, lower affinity interaction: 0.55 µM
  Kd, lower affinity of two: 0.24 µM
  N (Bmax), high affinity interaction (mol of vinculin bound per mol of talin): 0.15
  N (Bmax), lower affinity interaction (mol of vinculin bound per mol of talin): 3
